From patent publication US11214624 come the findings set out here.

This assay deals with microtubule (in vitro reconstituted, taxol-stabilised). The experiment in a line: cell-based or functional assay.

As for “kinesin (positive control motor protein in the gliding assay)”, the % of gliding microtubules (n = 50), ATP came out at 89.2%; the Maximum gliding speed, ATP turned out to be 0.27 µm/min; the Mean gliding speed, ATP is 0.17 µm/min.
